The text below walks through data of the supplement of paper PMC5998384.

The test system of data set [1] is HeLa Kyoto. The experiment in a line: thermal stability score vs G1/S (z-score of summed log2 fold changes over temperatures); higher = more thermally stable than in G1/S.
The subject of data set [2] is HeLa Kyoto. As to the kind of experiment: solubility in G1/S (NP-40 vs SDS abundance) (log2 ratio); higher = more soluble. Particulars: cell cycle stage: G1/S.
In data set [3] the test system is HeLa Kyoto. The experiment in a line: melting temperature (median over replicates), in situ; higher = more thermally stable.
The subject of data set [4] is HeLa Kyoto. As to the kind of experiment: solubility change mitosis vs G1/S (difference of NP-40 vs SDS log2 ratios) (log2 ratio difference); higher = more soluble in mitosis.
[5] abbreviates: cell cycle stage: early G1 (4.5 h after nocodazole release).
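Throughout, for melting temperature (median over replicates), in situ: HeLa Kyoto cells synchronized by double thymidine or nocodazole block, proteins quantified by TMT10plex mass spectrometry, three independent biological replicates.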
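Throughout, for solubility change mitosis vs G1/S (difference of NP-40 vs SDS log2 ratios): synchronized HeLa Kyoto cells (double thymidine block for G1/S, nocodazole release for mitosis), protein amounts in NP-40 versus SDS lysates quantified by mass spectrometry, three biological replicates.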
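Throughout, for solubility in G1/S (NP-40 vs SDS abundance): HeLa Kyoto cells arrested at G1/S by double thymidine block, proteins quantified by TMT10plex mass spectrometry in mild NP-40 versus SDS extracts, three biological replicates.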
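Throughout, for thermal stability score vs G1/S (z-score of summed log2 fold changes over temperatures): synchronized HeLa Kyoto cells, proteins quantified by TMT10plex mass spectrometry, three biological replicates, mitosis taken 0.5 h after nocodazole release, G1/S directly after double thymidine block.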

“MWGACKVKVHDSLATISITLRRYLRLGATMAKSKFEYVRDFEADDTCLAHCWVVVRLDGRNFHRFAEKHNFAKPNDSRALQLMTKCAQTVMEELEDIVIAYGQSDEYSFVFKRKTNWFKRRASKFMTHVASQFASSYVFYWRDYFEDQPLLYPPGFDGRVVVYPSNQTLKDYLSWRQADCHINNLYNTVFWALIQQSGLTPVQAQGRLQGTLAADKNEILFSEFNINYNNELPMYRKGTVLIWQKVDEVMTKEIKLPTEMEGKKMAVTRTRTKPVPLHCDIIGDAFWKEHPEILDEDS [THG1L]”: the figures for the thermal stability score in data set [1] (setting [5]) and in data set [1] (cell cycle stage: mitosis) were 0.242 and -0.354, respectively. The “solubility in G1/S (log2)” value in data set [2] was -0.0679. The melting temperature in data set [3] (cell cycle stage: G1/S) was 53.3 °C; in data set [3] (cell cycle stage: mitosis) it was 53.5 °C. Besides, in data set [4], the “solubility change mitosis (log2)” value was -0.0698.
As for “MWKASAGHAVSIAQDDAGADDWETDPDFVNDVSEKEQRWGAKTVQGSGHQEHINIHKLRENVFQEHQTLKEKELETGPKASHGYGGKFGVEQDRMDKSAVGHEYQSKLSKHCSQVDSVRGFGGKFGVQMDRVDQSAVGFEYQGKTEKHASQKDYSSGFGGKYGVQADRVDKSAVGFDYQGKTEKHESQRDYSKGFGGKYGIDKDKVDKSAVGFEYQGKTEKHESQKDYVKGFGGKFGVQTDRQDKCALGWDHQEKLQLHESQKDYKTGFGGKFGVQSERQDSAAVGFDYKEKLAKHESQQDYSKGFGGKYGVQKDRMDKNASTFEDVTQVSSAYQKTVPVEAVTSKTSNIRANFENLAKEKEQEDRRKAEAERAQRMAKERQEQEEARRKLEEQARAKTQTPPVSPAPQPTEERLPSSPVYEDAASFKAELSYRGPVSGTEPEPVYSMEAADYREASSQQGLAYATEAVYESAEAPGHYPAEDSTYDEYENDLGITAVALYDYQAAGDDEISFDPDDIITNIEMIDDGWWRGVCKGRYGLFPANYVELRQ [CTTN]”, the thermal stability score in data set [1] (setting [5]) is -3.16; in data set [1] (cell cycle stage: mitosis), -3.35. For the same sequence, the “solubility in G1/S (log2)” value in data set [2] is -0.21. Moreover, the melting temperature was found to be 60.6 °C in data set [3] (cell cycle stage: G1/S) and 57.6 °C in data set [3] (cell cycle stage: mitosis). For the same sequence, the “solubility change mitosis (log2)” value in data set [4] is -0.0191.
Consider “MWLDRRGWLRVLGHWRYDLRRPSFTRTWSGDKGPMAETVSTQVGTEGGLRASHQQNGDAGGDAKVELSPGPPKPAGREVEPAPVGGEHPSAAAPGPGKHKKRRGATRERVVPPPKKRRTGVSFGDEHFAETSYYFEGGLRKVRPYYFDFRTYCKGRWVGHSLLHVFSTEFRAQPLAYYEAAVRAGRLQLNEKPVQDLNIVLKDNDFLRNTVHRHEPPVTAEPIRLLAENEDVVVVDKPSSIPVHPCGRFRHNTVIFILGKEHQLKELHPLHRLDRLTSGVLMFAKTAAVSERIHEQVRDRQLEKEYVCRVEGEFPTEEVTCKEPILVVSYKVGVCRVDPRGKPCETVFQRLSYNGQSSVVRCRPLTGRTHQIRVHLQFLGHPILNDPIYNSVAWGPSRGRGGYIPKTNEELLRDLVAEHQAKQSLDVLDLCEGDLSPGLTDSTAPSSELGKDDLEELAAAAQKMEEVAEAAPQELDTIALASEKAVETDVMNQETDPLCAECRLVRQDPLPQDLVMFLHALRYKGPGFEYFSPMPAWAQDDWQKD [RPUSD2]”, for which the results for the thermal stability score in data set [1] (setting [5]) and in data set [1] (cell cycle stage: mitosis) were -1.46 and -2.6, respectively. The “solubility in G1/S (log2)” value in data set [2] is -0.0296. The melting temperature in data set [3] (cell cycle stage: G1/S) and in data set [3] (cell cycle stage: mitosis) was 54.1 °C in each case. Further, the “solubility change mitosis (log2)” value in data set [4] worked out at 0.0172.
Regarding “MWLPLVLLLAVLLLAVLCKVYLGLFSGSSPNPFSEDVKRPPAPLVTDKEARKKVLKQAFSANQVPEKLDVVVIGSGFGGLAAAAILAKAGKRVLVLEQHTKAGGCCHTFGKNGLEFDTGIHYIGRMEEGSIGRFILDQITEGQLDWAPLSSPFDIMVLEGPNGRKEYPMYSGEKAYIQGLKEKFPQEEAIIDKYIKLVKVVSSGAPHAILLKFLPLPVVQLLDRCGLLTRFSPFLQASTQSLAEVLQQLGASSELQAVLSYIFPTYGVTPNHSAFSMHALLVNHYMKGGFYPRGGSSEIAFHTIPVIQRAGGAVLTKATVQSVLLDSAGKACGVSVKKGHELVNIYCPIVVSNAGLFNTYEHLLPGNARCLPGVKQQLGTVRPGLGMTSVFICLRGTKEDLHLPSTNYYVYYDTDMDQAMERYVSMPREEAAEHIPLLFFAFPSAKDPTWEDRFPGRSTMIMLIPTAYEWFEEWQAELKGKRGSDYETFKNSFVEASMSVVLKLFPQLEGKVESVTAGSPLTNQFYLAAPRGACYGADHDLGRLHPCVMASLRAQSPIPNLYLTGQDIFTCGLVGALQGALLCSSAILKRNLYSDLKNLDSRIRAQKKKN [RETSAT]”, the thermal stability score in data set [1] (setting [5]) was 2.89; in data set [1] (cell cycle stage: mitosis), 3.75. The “solubility in G1/S (log2)” value in data set [2] was 0.0503. Further, the melting temperature worked out at 52.1 °C in data set [3] (cell cycle stage: G1/S) and 52.2 °C in data set [3] (cell cycle stage: mitosis). Moreover, in data set [4], the “solubility change mitosis (log2)” value is -0.0973.
On to “MWLWEDQGGLLGPFSFLLLVLLLVTRSPVNACLLTGSLFVLLRVFSFEPVPSCRALQVLKPRDRISAIAHRGGSHDAPENTLAAIRQAAKNGATGVELDIEFTSDGIPVLMHDNTVDRTTDGTGRLCDLTFEQIRKLNPAANHRLRNDFPDEKIPTLREAVAECLNHNLTIFFDVKGHAHKATEALKKMYMEFPQLYNNSVVCSFLPEVIYKMRQTDRDVITALTHRPWSLSHTGDGKPRYDTFWKHFIFVMMDILLDWSMHNILWYLCGISAFLMQKDFVSPAYLKKWSAKGIQVVGWTVNTFDEKSYYESHLGSSYITDSMVEDCEPHF [GDE1]”, for which the thermal stability score is 0.685 in data set [1] (setting [5]) and -1.42 in data set [1] (cell cycle stage: mitosis). The “solubility in G1/S (log2)” value in data set [2] came out at 0.138. In addition, the melting temperature in data set [3] (cell cycle stage: G1/S) was found to be 51.5 °C; in data set [3] (cell cycle stage: mitosis), 55.9 °C. Moreover, in data set [4], the “solubility change mitosis (log2)” value is -0.1.
As to “MWPGNAWRAALFWVPRGRRAQSALAQLRGILEGELEGIRGAGTWKSERVITSRQGPHIRVDGVSGGILNFCANNYLGLSSHPEVIQAGLQALEEFGAGLSSVRFICGTQSIHKNLEAKIARFHQREDAILYPSCYDANAGLFEALLTPEDAVLSDELNHASIIDGIRLCKAHKYRYRHLDMADLEAKLQEAQKHRLRLVATDGAFSMDGDIAPLQEICCLASRYGALVFMDECHATGFLGPTGRGTDELLGVMDQVTIINSTLGKALGGASGGYTTGPGPLVSLLRQRARPYLFSNSLPPAVVGCASKALDLLMGSNTIVQSMAAKTQRFRSKMEAAGFTISGASHPICPVMLGDARLASRMADDMLKRGIFVIGFSYPVVPKGKARIRVQISAVHSEEDIDRCVEAFVEVGRLHGALP [GCAT]”, the results for the thermal stability score in data set [1] (setting [5]) and in data set [1] (cell cycle stage: mitosis) were -0.218 and -1.56, respectively. Besides, the “solubility in G1/S (log2)” value in data set [2] was determined as 0.194. Besides, the melting temperature in data set [3] (cell cycle stage: G1/S) and in data set [3] (cell cycle stage: mitosis) was 53.3 °C each time. The “solubility change mitosis (log2)” value in data set [4] was -0.0435.
